{"source": "the DeepSol protein solubility set"}
{"assay": "soluble on expression in E. coli; label from the status in PepcDB or PDB records"}
{"sequence": "MRIEVTIAKTSPLPAGAIDALAGELSRRIQYAFPDNEGHVSVRYAAANNLSVIGATKEDKQRISEILQETWESADDWFVSE", "soluble on expression in E. coli": "soluble"}
{"sequence": "MSLAERKPIESWLTDMDGVLIHEGVPIPGADAFIKKLRESGKPFLVLTNNSIYTPRDLHARLRRMGLDVPVENIWTSALATAQFLGDQRPDGTAYVIGEAGLTTALHDIGYVLTDHEPDYVVLGETRTYSFEAMTQAVRLINKGARFICTNPDETGPSAEGPLPATGAVAALITKATGKKPYFAGKPNPLMMRTGLNTLGAHSETSAMIGDRMDTDVLAGMEAGMQTFLVLTGLTGPDQVENYPYRPSKVVDSIADLVDWIEGHHHHHH", "soluble on expression in E. coli": "soluble"}
{"sequence": "MVFKPHRINCRDFTFKIELKEKKILRGRAMLDKIDRKLLALLQQDCTLSLQALAEAVNLTTTPCWKRLKRLEDDGILIGKVALLDPEKIGLGLTAFVLIKTQHHSSEWYCRFVTVVTEMPEVLGVWRMAGEYDYLMRVQVADMKRYDEFYKRLVNSVPGLSDVTSSFAMEQIKYTTSLPIE", "soluble on expression in E. coli": "not soluble"}
{"sequence": "MELPILPTSVIGSYPKPRWLLRMYRLRDLGKIPEEDFKEAVKDASVSVLREHERAGVDIPWDGEMWRTEMTEHFTAKIGGFKFYGPVRVWGNAYFNKAAAVDKLEYKEPLVLEEFLWVKKNTTREVVKIPITGPYTIAEWSFNEYYPDKESFIMDLAKIINKELKMLENHGALYIQLDEPAMLNHPDEVPLAVEAINKAVKGIKIKVGLHVCYSNYYLLADYFDEIRVTQFALEFANRQFRDMDFLKKLSNKELGFGVVDVHNPRIESVEEIVKAIKKVFEYVEPELLYINPDCGMKLLDRNIAYNKLVNMVKATELVRKELEREGKKTTEFRTLKDILEHHHHHH", "soluble on expression in E. coli": "not soluble"}
{"sequence": "MLKTAYQRSPKQELAKNTPFFNETDLKHSFIIDFENQEFIHHQAEPLNYLFYLIKGKAKILKTERNGRQSIVQFLTAGDLIGDLTLVQAETITKDVIALGETCCLAVPLAYAETVLKNKVLFMQQLSHYLGKKMLQRVDHFTTNQTYELSYRLAELLLVAANHEDVYKEKHTEIAEYLGVSYRHLIYTFKQFRERGFIQKQGTAYHINRLALHSFVQKMKS", "soluble on expression in E. coli": "not soluble"}
{"sequence": "MGHHHHHHSHMVAHNQVAADNAVSTAAEPRRRPEPSSSSSSSPAAPARPRPCPAVPAPAPGDTHFRTFRSHADYRRITRASALLDACGFYWGPLSVHGAHERLRAEPVGTFLVRDSRQRNCFFALSVKMASGPTSIRVHFQAGRFHLDGSRESFDCLFELLEHYVAAPRRMLGAPLRQRRVRPLQELCRQRIVATVGRENLARIPLNPVLRDYLSSFPFQI", "soluble on expression in E. coli": "not soluble"}
{"sequence": "MSLPRRPTSSAREGDGGKRSGHTFAAVEAIGRALPDVEVTTAWGQPALKVHGKMFVCVASHKSAEPNSLVVMMAFADRDALVEDDPATYYLRKHYLNHPCVLVRLTRIRLDALRDLVVGAHRLVNVQMRSKSDIGSQGTSRPLRDRREGHHHHHH", "soluble on expression in E. coli": "soluble"}
{"sequence": "MKTLNRRDFPGAQYPERIIQFGEGNFLRAFVDWQIDLLNEHTDLNSGVVVVRPIETSFPPSLSTQDGLYTTIIRGLNEKGEAVSDARLIRSVNREISVYSEYDEFLKLAHNPEMRFVFSNTTEAGISYHAGDKFDDAPAVSYPAKLTRLLFERFSHFNGALDKGWIIIPCELIDYNGDALRELVLRYAQEWALPEAFIQWLDQANSFCSTLVDRIVTGYPRDEVAKLEEELGYHDGFLDTAEHFYLFVIQGPKSLATELRLDKYPLNVLIVDDIKPYKERKVAILNGAHTALVPVAFQAGLDTVGEAMNDAEICAFVEKAIYEEIIPVLDLPRDELESFASAVTGRFRNPYIKHQLLSIALNGMTKFRTRILPQLLAGQKANGTLPARLTFALAALIAFYRGERNGETYPVQDDAHWLERYQQLWSQHRDRVIGTQELVAIVLAEKDHWEQDLTQVPGLVEQVANDLDAILEKGMREAVRPLC", "soluble on expression in E. coli": "not soluble"}
{"sequence": "MTDEQRSGSRRRGGALGGGRGGNSQNSGRKRSSNSPADSASSSQKTSRNPSQNRPPMNIVPQKVTILKRNQDSQPTSPINRNAPPGPLVAAVQPLMAVELGDSGASLKGWNSNPTTPEKTTINVAGRQAEANKKQTQEYYFSKNAGSAVSAQTFQETVQYPMSSFPLEKNVPIQIDNNFTLLITPTTSKCNGLFIKVKLQHGDDNITTGALLKLDADEKTIRKSCRETIENLLKAKSSSDRFPFSKCSEGFLTSCLIKKLVDRLEAFPEAIYYCEKCDYHINTIGHAKAHLESSTHFDDVKRQEQREHLLKIIPPPTEAHLESVEKVLEGTLKSYQQVRQNGIEIGETIIYYLSTTVFPSIGLQDVILRPFGSVTYDVTLPDSDYNVAYTMSIPEGTPIFALLEQVRKKIADDGHPADHSMEMGTPSTIIFTFKGVRVKLCWMSCFNHRIQLHFSELMKTYVNLREEVAQFLQLIRLWATKAGLDSKNKPRIGLPRYGFDIMAIHFLQQIGCLPVLHELFEAGPETEKIEEMSAEKTAKLQSEEAGQRRMRLMSRYEKNTEKIGTKFDLKKSWNLAELFIGFFRYYVERHRDVVIQITQLIPMSRDVSRWNKKILHVVDPFRGDNVLSIPKVSTWQPFFFNCLLTSFVSFSIPRTKNGPLIEVSFVHNKTIKPGKKFKDTPKKATVEAPIPLTQIMEEHYQEPVYEIVNDKDHLKYMKELKERLMIDGILVNERKPIDYHTDDHRECVYGRNSLLRFKRVLKPGLNGKMAASMDGLSFVTKKGKKFINRWKKANVIILSEDSSEIDEKTKAADSNVSEIAEKLEETLKISSQKNIDVAVTSMPVSTEIKPEPITKLSNEAPVKIKNVAQPQCDLIEAPQESLMNESMMESSFDETESPMKTPIVQKPVKQNATFGKSTISTVIPDKQFCSEEFFIKLNSNLKDIVSKSKSLKPSDFHYEFSTDLFCGDFEMEMKCTHCDGSHCVENCPMMEIPPIKKYQARTPEDLKDIDDMIDKYYHENILDERRLKMLDHKIDELQSFLRKNYREDVTLTTFGSVMTGLSVNCSDIDICLRFGDGDVPPKDLTAKEVIQKTESVLRKCHLVKRVQAIVTAKVPIVKFQVKLSNGAIIDVDISYYNILAIYNTALLKEYSLWTPDKRFAKLALFVKTWAKNCEIGDASRGSLSSYCHVIMLISYLQNCDPPVLPRLQEDFRSDNRERRLVDNWDTSFAQVETSLLQRWPKNKESCAQLLIGYFDYYSRFDFRNFVVQCRREMILSKMEKEWPRPLCVEDPFDLSHNLSSGVNKKMFVFIMKVFINSRAVFMSEKPPMNRDHTFLSSYQHQLLRKCNQGSAPTDRQCHQCHRIGHFVESCPQRALAKEARKRFGSNSTNSSYRSNDSGRGFKNGEEGGDRLTYHKRTYYHRSYNK", "soluble on expression in E. coli": "not soluble"}
{"sequence": "EYRHLVLNQLRNMGGTRFFVSLNNHQIDVDPLPESERKTLVINQVREVLESELSGIPNIEVEFTQRDKLKVFNNELPIDELPLLWAHYSLSFGDLNPPILVMQVEVAQNEWFYLAAVLPAPYINLETNYFELRQ", "soluble on expression in E. coli": "not soluble"}
{"sequence": "SYPSLFAPLDLGFTTLKNRVLMGSMHTGLEEYPDGAERLAAFYAERARHGVALIVSGGIAPDLTGVGMEGGAMLNDASQIPHHRTITEAVHQEGGKIALQILHTGRYSYQPHLVAPSALQAPINRFVPHELSHEEILQLIDNFARCAQLAREAGYDGVEVMGSEGYLINEFLTLRTNQRSDQWGGDYRNRMRFAVEVVRAVRERVGNDFIIIYRLSMLDLVEDGGTFAETVELAQAIEAAGATIINTGIGWHEARIPTIATPVPRGAFSWVTRKLKGHVSLPLVTTNRINDPQVADDILSRGDADMVSMARPFLADAELLSKAQSGRADEINTCIGCNQACLDQIFVGKVTSCLVNPRACHETKMPILPAVQKKNLAVVGAGPAGLAFAINAAARGHQVTLFDAHSEIGGQFNIAKQIPGKEEFYETLRYYRRMIEVTGVTLKLNHTVTADQLQAFDETILASGIVPRTPPIDGIDHPKVLSYLDVLRDKAPVGNKVAIIGCGGIGFDTAMYLSQPGESTSQNIAGFCNEWGIDSSLQQAGGLSPQGMQIPRSPRQIVMLQRKASKPGQGLGKTTGWIHRTTLLSRGVKMIPGVSYQKIDDDGLHVVINGETQVLAVDNVVICAGQEPNRALAQPLIDSGKTVHLIGGCDVAMELDARRAIAQGTRLALEI", "soluble on expression in E. coli": "soluble"}
{"sequence": "MSAAADRLNLTSGHLNAGRKRSSSSVSLKAAEKPFKVTVIGSGNWGTTIAKVVAENCKGYPEVFAPIVQMWVFEEEINGEKLTEIINTRHQNVKYLPGITLPDNLVANPDLIDSVKDVDIIVFNIPHQFLPRICSQLKGHVDSHVRAISCLKGFEVGAKGVQLLSSYITEELGIQCGALSGANIATEVAQEHWSETTVAYHIPKDFRGEGKDVDHKVLKALFHRPYFHVSVIEDVAGISICGALKNVVALGCGFVEGLGWGNNASAAIQRVGLGEIIRFGQMFFPESREETYYQESAGVADLITTCAGGRNVKVARLMATSGKDAWECEKELLNGQSAQGLITCKEVHEWLETCGSVEDFPLFEAVYQIVYNNYPMKNLPDMIEELDLHED", "soluble on expression in E. coli": "soluble"}
